The values below come from US20260231954A1, “PESTICIDAL ENZYMES FOR USE ON NEMATODES, INSECTS, AND MOLLUSKS” (priority 2023, published 2026).

Common to all, as to format: in vivo
The test system of test [1] is winter wheat. Briefly: Field trial: esterase on MAP fertilizer, winter wheat yield and vigor. As to conditions: 1 fl oz/A EstA fermentation on MAP (15 lb/A Phosphate); MAP base control 4124.5. The protocol:
Esterase A (EstA) from Bacillus subtilis (SEQ ID NO:254) was produced via fermentation of a recombinantly produced enzyme in Bacillus subtilis. 1 fl oz of fermentation product was applied onto 15 lb P/A (phosphate equivalent per acre) monoammonium phosphate (MAP) fertilizer in a concrete mixer and allowed to mix for 1 minute. A MAP control treatment without fermentation media was also created. MAP, alone or with fermentation media was distributed across 4 small replicated plots prior to planting of winter wheat with 5 replicates of 300 ft^2 each at each site.

Test [2] has as its system corn. Nature of the test: Field trial: esterase on MAP/DAP fertilizer, corn yield. As to conditions: 2 fl oz/A EstA fermentation on MAP/DAP (72 lb/A Phosphate); base control 12798. The protocol: Esterase A (EstA) from Bacillus subtilis (SEQ ID NO:254) was produced via fermentation of a recombinantly produced enzyme in Bacillus subtilis. 2 fl oz of fermentation product was applied onto either 72 lb P/A (phosphate equivalent per acre) monoammonium phosphate (MAP) fertilizer or diammonium phosphate (DAP) fertilizer in a concrete mixer, and allowed to mix for 1 minute. A MAP/DAP control treatment without fermentation media was also created. MAP or DAP, alone or with fermentation media was distributed across 4 small replicated plots each prior to planting of corn with 5 replicates of 400 ft2 each at each site (4 site with MAP, 4 sites with DAP, combined in data in Table 52 below).

Test [3] has as its system winter wheat. Briefly: Field trial: esterase on urea fertilizer, winter wheat yield. Particulars: 1 fl oz or 2 fl oz fermentation product on 15 lb N/A urea. The procedure: Esterase A (EstA) from Bacillus subtilis (SEQ ID NO:254) was produced via fermentation of a recombinantly produced enzyme in Bacillus subtilis. 1 fl oz or 2 fl oz of fermentation product was applied onto 15 lb N/A (nitrogen equivalent per acre) urea fertilizer in a concrete mixer and allowed to mix for 1 minute. A urea control treatment without fermentation media was also created. urea, alone or with fermentation media was distributed across 4 small replicated plots prior to planting of winter wheat with 5 replicates of 300 ft^2 each at each site.

Test [4] concerns corn. Briefly: Field trial: esterase on DAP fertilizer, corn yield. As to conditions: 1, 2, or 3 fl oz fermentation product on 67.5 lb P/A DAP. The procedure: (§1) Esterase A (EstA) from Bacillus subtilis (SEQ ID NO:254) was produced via fermentation of a recombinantly produced enzyme in Bacillus subtilis. 1, 2, or 3 fl oz of fermentation product was applied onto 67.5 lb P/A (phosphate equivalent per acre) diammonium phosphate (DAP) fertilizer in a concrete mixer, and allowed to mix for 1 minute. A DAP control treatment without fermentation media was also created. DAP, alone or with fermentation media was distributed across 4 small replicated plots each prior to planting of corn with 4 replicates of 400 ft^2 each at each site.

In test [5] the test system is corn. Briefly: Field trial: esterase on urea with or without NBPT nitrogen stabilizer, corn yield. As to conditions: 1, 2, or 3 fl oz fermentation product on 135 lb N/A urea, with or without 64 fl oz/ton NBPT. The procedure:
as §1, with “135” for “67.5”, “N/A (nitrogen” for “P/A (phosphate”, “urea” for “diammonium phosphate (DAP)”, “urea” for “DAP”, “An addition treatment that contained 64 fl oz/ton N-Butyl-thiophosphoric triamide (NBPT) nitrogen stabilizer or 64 fl oz/ton NBPT nitrogen stabilizer with 3 fl oz/A EstA fermentation product was also included in the trial. Urea,” for “DAP,”, “ft2” for “ft^2”

For test [6], the system named is corn. Nature of the test: Field trial: EstA Esterase corn seed treatment, yield. As to conditions: 2.5 fl oz/unit on hybrid corn seed; 16 sites. The text has this: 2.5 fl oz/unit of EstA Esterase from recombinant Bacillus subtilis fermentation (SEQ ID NO: 254) was coated onto hybrid corn seeds treated with Fludioxinil, Azoxystrobin, mefonoxam, and thiabendaz fungicides, cyantraniliproleinsecticide, peridium 1006 polymer, and (colorant). A control treatment without esterase enzyme was also created. The seed treated with esterase and control seed was planted in replicated trials distributed across 16 replicated plots with 4 replicates of 80 ft2 each at each site.

B1: EstA fermentation: Esterase A (EstA) from Bacillus subtilis (SEQ ID NO:254), fermentation product of recombinant Bacillus subtilis (protein, listed as Bacillus subtilis)
chain: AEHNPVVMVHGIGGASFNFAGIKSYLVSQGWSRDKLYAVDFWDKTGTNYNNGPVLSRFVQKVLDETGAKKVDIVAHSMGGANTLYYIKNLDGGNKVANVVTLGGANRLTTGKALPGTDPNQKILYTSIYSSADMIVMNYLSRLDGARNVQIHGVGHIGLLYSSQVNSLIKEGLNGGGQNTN
Take B1: the “Yield (Kg/ha)” value in the test on winter wheat [1] is on record as 4224.7 Kg/ha; in the test on corn [2] it was 13077 Kg/ha. The “yield vs urea control (in words)” value with winter wheat [3] is “increased the yield”. Besides, the “yield vs DAP control (in words)” value with corn [4] is “increased the yield”. In addition, the “yield vs urea control and NBPT containing treatments (in words)” value in the test on corn [5] is listed as “increased the yield”. The “yield vs base seed treatment package (in words)” value in the test on corn [6] is “increased the yield”.
